Reference: publication PMC4258425

Legend:
Details in all cases: 100 mM Na2HPO4 pH 8.0, 22 °C
hydratase kinetics [1] = substrate: CC#CC(=O)C(=O)O; assay: hydratase kinetics; format: biochemical, Paraburkholderia phymatum
hydratase kinetics [2] = substrate: CC#CC(=O)C(=O)O; assay: hydratase kinetics; format: biochemical, Bacillus subtilis
decarboxylase kinetics = substrate: O=CCC(=O)O; assay: decarboxylase kinetics; format: biochemical, Bacillus subtilis

Protein | Km (hydratase kinetics [1]) | kcat (hydratase kinetics [1]) | kcat/Km (hydratase kinetics [1]) | Km (hydratase kinetics [2]) | kcat (hydratase kinetics [2]) | kcat/Km (hydratase kinetics [2]) | Km (decarboxylase kinetics) | kcat (decarboxylase kinetics) | kcat/Km (decarboxylase kinetics)
Bp4401 (Paraburkholderia phymatum STM815) (protein) PLTRIALRAGKPAAYRQALTEGIQRALIAEFNVPEDDIFMVISEQDESNFVYNRNYLDIQRSDDFVLIQLTVTNSRTQEQKKALYKRIVDNLAEYPGVRREDVFINLVEVLKENWSFGNGIAQYAL | 5 ± 0.35 mM | 14 ± 0.1 s⁻¹ | 2800 M⁻¹ s⁻¹ | – | – | – | – | – | –
YodA (Bacillus subtilis subsp. subtilis str. 168) (protein) PLLRFDVIEGRDEKSLQLLLDTAHQAMVEAFGVPERDRYQIVHQHPANELIIQDAGLGFQRTKDMVIISMTSKARTESQKEKLYALLAERLEKKCEISPDDLMVSITENGDADWSFGLGEAQFLNGKL | – | – | – | 0.27 ± 0.04 mM | 0.03 ± 0.001 s⁻¹ | 111 M⁻¹ s⁻¹ | 6.8 ± 0.94 mM | 12.2 ± 1.1 s⁻¹ | 1300 M⁻¹ s⁻¹
